In the supplement of paper PMC10266784:

B1: library; numbered along this chain (parent)
chain: MAAAAAAAAEQQSSNGPVKKSMREKAVERRSVNKEHNSNFKAGYIPIDEDRLHKTGLRGRKGNLAICVIILLFILAVINLIITLVIWAVIRIGPNGCDSMEFHESGLLRFKQVSDMGVIHPLYKSTVGGRRNENLVITGNNQPIVFQQGTTKLSVENNKTSITSDIGMQFFDPRTQNILFSTDYETHEFHLPSGVKSLNVQKASTERITSNATSDLNIKVDGRAIVRGNEGVFIMGKTIEFHMGGNMELKAENSIILNGSVMVSTTRLPSSSSGDQLGSGDWVRYKLCMCADGTLFKVQVTSQNMGCQISDNPCGNTH

Variants of: B1
Test: SGCB cell-surface expression functional score (HA stain, bin4 vs bin1, normalised to synonymous) (log10 ratio); higher = more cell-surface SGCB (functional)
Method in brief: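 Using lentivirus at MOI <0.1, HA-tagged, YFP-fused human beta-sarcoglycan codon-saturation libraries were put into HEK293 cells with stable alpha-, gamma- and delta-sarcoglycan expression, in duplicate transductions. YFP-positive cells were collected by sorting 72 hours later, grown 5–7 days, stained on ice with Alexa Fluor 647 anti-HA, fixed, sorted into four 5% intensity bins and amplicon-sequenced. The functional score takes the median, across codons and transductions, of the log ratio of highest-bin to lowest-bin variant frequency. Within each section, synonymous variants were scaled to mean 0, SD 0.5.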

SGCB cell-surface expression functional score (log10), by site and new letter:
N316: W -0.12 | T 0.37 | Y 0.39 | V -0.19
T317: F 0.01 | C 0.17 | N 0.08 | L -0.33 | W 0.32 | P -0.04 | R -0.1 | V -0.26 | S 0.15 | K 0.5 | I 0.05 | D -1.71 | Y 0.51 | G 0.44 | Q 0.03 | A -0.21 | M -0.28 | E -0.34 | H -0.39
